According to article doi:10.1101/2025.03.14.643254:

Molecular target: MRE11 (human) (UniProt P49959)
Assay: cryo-EM structure

Sequence of NBS1 (O60934 whole entry): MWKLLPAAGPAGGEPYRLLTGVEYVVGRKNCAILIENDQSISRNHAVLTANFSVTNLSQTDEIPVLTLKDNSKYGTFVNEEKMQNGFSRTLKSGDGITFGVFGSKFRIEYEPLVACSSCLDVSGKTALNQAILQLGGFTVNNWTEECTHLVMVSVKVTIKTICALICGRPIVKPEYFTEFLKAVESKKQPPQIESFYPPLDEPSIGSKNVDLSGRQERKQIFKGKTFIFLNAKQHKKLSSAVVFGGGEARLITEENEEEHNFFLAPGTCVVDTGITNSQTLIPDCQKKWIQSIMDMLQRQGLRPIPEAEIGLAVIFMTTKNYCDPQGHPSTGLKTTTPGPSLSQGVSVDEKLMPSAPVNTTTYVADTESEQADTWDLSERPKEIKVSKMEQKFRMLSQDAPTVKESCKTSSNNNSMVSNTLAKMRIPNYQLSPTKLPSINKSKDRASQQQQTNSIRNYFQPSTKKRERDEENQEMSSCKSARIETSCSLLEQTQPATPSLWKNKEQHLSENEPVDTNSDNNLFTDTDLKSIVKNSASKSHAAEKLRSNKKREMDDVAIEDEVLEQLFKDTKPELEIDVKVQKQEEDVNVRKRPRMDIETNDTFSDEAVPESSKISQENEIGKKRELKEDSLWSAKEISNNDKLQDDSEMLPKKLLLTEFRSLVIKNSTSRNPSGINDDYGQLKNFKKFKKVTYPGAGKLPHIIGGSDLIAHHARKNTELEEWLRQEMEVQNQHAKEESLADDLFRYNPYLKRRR
Sequence of MRE11 (human) (P49959 whole entry): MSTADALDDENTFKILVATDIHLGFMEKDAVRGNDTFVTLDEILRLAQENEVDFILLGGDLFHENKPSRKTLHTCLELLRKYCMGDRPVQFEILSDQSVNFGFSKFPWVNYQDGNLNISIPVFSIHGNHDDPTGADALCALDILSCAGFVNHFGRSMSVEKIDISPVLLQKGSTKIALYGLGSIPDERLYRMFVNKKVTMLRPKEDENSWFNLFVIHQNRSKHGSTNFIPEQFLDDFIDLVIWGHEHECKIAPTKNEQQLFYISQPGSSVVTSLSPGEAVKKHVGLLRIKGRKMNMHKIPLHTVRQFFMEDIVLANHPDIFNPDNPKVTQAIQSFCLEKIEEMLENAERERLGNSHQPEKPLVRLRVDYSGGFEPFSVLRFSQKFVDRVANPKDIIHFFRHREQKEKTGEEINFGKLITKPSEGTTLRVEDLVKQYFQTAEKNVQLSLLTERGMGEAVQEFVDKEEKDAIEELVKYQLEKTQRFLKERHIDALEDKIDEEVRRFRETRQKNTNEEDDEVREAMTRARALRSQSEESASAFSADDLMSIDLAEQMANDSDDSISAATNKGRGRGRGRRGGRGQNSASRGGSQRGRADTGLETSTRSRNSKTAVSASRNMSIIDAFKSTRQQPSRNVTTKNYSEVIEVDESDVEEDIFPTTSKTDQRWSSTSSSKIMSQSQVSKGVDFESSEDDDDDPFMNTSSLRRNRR
Sequence of MRE11 (P49959 whole entry): as above

| stoichiometry N (NBS1 per MRE11 dimer) | stoichiometry N | Substance |
| --- | --- | --- |
| 1 | – | NBS1 (from UniProt O60934) (natural protein) |
| – | 2 | MRE11 (from UniProt P49959) (natural protein) |
